Laboratory results: US20130224187A1 (Alexion, published 2013)

Legend:
human C5a [1] = target: T1, human C5a (human, UniProt P01031 678-751); assay: SPR (Biacore); antibody captured by anti-human Fc on CM5 chip, human C5a 0.6-5.9 nM as analyte; 1:1 Langmuir fit
T1 construct: also called hC5a; free human C5a
T1 sequence: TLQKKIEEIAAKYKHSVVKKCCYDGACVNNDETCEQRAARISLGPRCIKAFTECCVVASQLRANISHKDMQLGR
Protocol: (§1) See, e.g., Karlsson and Larsson (2004) Methods Mol Biol 248:389-415. […] The surface was regenerated with 20 mM HCl, 0.02% P20 after each cycle to remove bound antibody and antigen. The data was evaluated using Biacore BlAevaluation software using a 1:1 Langmuir Model Fit (Rmax:Global Fit; R1:Local Fit). Kinetics information such as (kₐ: Association Rate constant), (kd:Dissociation Rate constant) and KD (Equilibrium Dissociation constant) was obtained from the fit. These experiments were for screening purposes with a minimal number of analyte concentrations (3 to 4) with 1 duplicate.

human C5a [2] = target: T1, human C5a; assay: SPR (Biacore); summary sentence of Table 4
Protocol: as §1

B1: BNJ367 (antibody, human IgG2, kappa)
heavy: QVQLVQSGAEVKKPGASVKVSCKASGYTFTDYSMDWVRQAPGQGLEWMGAINPNSGGTNYNQKFKDRVTMTRDTSTSTVYMELSSLRSEDTAVYYCARSGSYDGYYAMDYWGQGTTVTVSSASTKGPSVFPLAPCSRSTSESTAALGCLVKDYFPEPVTVSWNSGALTSGVHTFPAVLQSSGLYSLSSVVTVPSSNFGTQTYTCNVDHKPSNTKVDKTVERKCCVECPPCPAPPVAGPSVFLFPPKPKDTLMISRTPEVTCVVVDVSQEDPEVQFNWYVDGVEVHNAKTKPREEQFNSTYRVVSVLTVLHQDWLNGKEYKCKVSNKGLPSSIEKTISKAKGQPREPQVYTLPPSQEEMTKNQVSLTCLVKGFYPSDIAVEWESNGQPENNYKTTPPVLDSDGSFFLYSRLTVDKSRWQEGNVFSCSVMHEALHNHYTQKSLSLSLGK
light: DIVMTQSPDSLAVSLGERATINCRASESVDSYGNSFMHWYQQKPGQPPKLLIYRASNLESGVPDRFSGSGSGTDFTLTISSLQAEDVAVYYCQQSNEDPYTFGGGTKVEIKRTVAAPSVFIFPPSDEQLKSGTASVVCLLNNFYPREAKVQWKVDNALQSGNSQESVTEQDSKDSTYSLSSTLTLSKADYEKHKVYACEVTHQGLSSPVTKSFNRGEC
notes: Humanized full length IgG
Kd (human C5a [1]): 0.198 nM
koff (human C5a [1]): 0.000778 s⁻¹
kon (human C5a [1]): 3.94e+06 M⁻¹ s⁻¹
Kd (human C5a [2]): < 1 nM

B2: BNJ364 (antibody, human IgG2, kappa)
heavy: QVQLVQSGAEVKKPGASVKVSCKASGYTFTDYSMDWVRQAPGQGLEWMGAINPNSGGTNYNQKFKDRVTMTRDTSTSTVYMELSSLRSEDTAVYYCARSGSYDGYYAMDYWGQGTTVTVSSASTKGPSVFPLAPCSRSTSESTAALGCLVKDYFPEPVTVSWNSGALTSGVHTFPAVLQSSGLYSLSSVVTVPSSNFGTQTYTCNVDHKPSNTKVDKTVERKCCVECPPCPAPPVAGPSVFLFPPKPKDTLMISRTPEVTCVVVDVSHEDPEVQFNWYVDGVEVHNAKTKPREEQFNSTFRVVSVLTVVHQDWLNGKEYKCKVSNKGLPAPIEKTISKTKGQPREPQVYTLPPSREEMTKNQVSLTCLVKGFYPSDISVEWESNGQPENNYKTTPPMLDSDGSFFLYSKLTVDKSRWQQGNVFSCSVMHEALHNHYTQKSLSLSPGK
light: DIVMTQSPDSLAVSLGERATINCRASESVDSYGNSFMHWYQQKPGQPPKLLIYRASNLESGVPDRFSGSGSGTDFTLTISSLQAEDVAVYYCQQSNEDPYTFGGGTKVEIKRTVAAPSVFIFPPSDEQLKSGTASVVCLLNNFYPREAKVQWKVDNALQSGNSQESVTEQDSKDSTYSLSSTLTLSKADYEKHKVYACEVTHQGLSSPVTKSFNRGEC
notes: Humanized full length IgG
Kd (human C5a [1]): 0.644 nM
koff (human C5a [1]): 0.000638 s⁻¹
kon (human C5a [1]): 991000 M⁻¹ s⁻¹
Kd (human C5a [2]): < 1 nM

B3: BNJ371 (antibody, human IgG2, kappa, V domains shown)
VH: QVQLVQSGAEVKKPGASVKVSCKASGYTFTDYSMDWVRQAPGQGLEWMGAINPNSGGTNYNQKFKDRVTMTRDTSTSTVYMELSSLRSEDTAVYYCARSGSYDGYYAMDYWGQGTTVTVSS
VL: DIVMTQSPDSLAVSLGERATINCRASESVDSYGNSFMHWYQQKPGQPPKLLIYWASTRESGVPDRFSGSGSGTDFTLTISSLQAEDVAVYYCQQSNEDPYTFGGGTKVEIKR
notes: Humanized full length IgG; Light chain CDR2 is humanized
Kd (human C5a [1]): 1.18 nM
koff (human C5a [1]): 0.00282 s⁻¹
kon (human C5a [1]): 2.38e+06 M⁻¹ s⁻¹
Kd (human C5a [2]): < 1.2 nM

B4: BNJ378 (antibody, human IgG2, kappa, V domains shown)
VH: QVQLVQSGAEVKKPGASVKVSCKASGYTFTDYSMDWVRQAPGQGLEWMGAINPNSGGTNYNQKFKDRVTMTRDTSTSTVYMELSSLRSEDTAVYYCARSGSYDGYYAMDYWGQGTTVTVSS
VL: DIQMTQSPSSLSASVGDRVTITCRASESVDSYGNSFMHWYQQKPGKAPKLLIYRASNLESGVPSRFSGSGSGTDFTLTISSLQPEDFATYYCQQSNEDPYTFGGGTKVEIKR
notes: Humanized full length IgG
Kd (human C5a [1]): 0.298 nM
koff (human C5a [1]): 0.000576 s⁻¹
kon (human C5a [1]): 1.93e+06 M⁻¹ s⁻¹
Kd (human C5a [2]): < 1 nM
